Assay results published in patent US20230250154A1 (CYTONICS, published 2023).

B1: Variant A2M, bait region SEQ ID NO 96 (other)
chain: SVSGKPQYMVLVPSLLHTETTEKGCVLLSYLNETVTVSASLESVRGNRSLFTDLEAENDVLHCVAFAVPKSSSNEEVMFLTVQVKGPTQEFKKRTTVMVKNEDSLVFVQTDKSIYKPGQTVKFRVVSMDENFHPLNELIPLVYIQDPKGNRIAQWQSFQLEGGLKQFSFPLSSEPFQGSYKVVVQKKSGGRTEHPFTVEEFVLPKFEVQVTVPKIITILEEEMNVSVCGLYTYGKPVPGHVTVSICRKYSDASDCHGEDSQAFCEKFSGQLNSHGCFYQQVKTKVFQLKRKEYEMKLHTEAQIQEEGTVVELTGRQSSEITRTITKLSFVKVDSHFRQGIPFFGQVRLVDGKGVPIPNKVIFIRGNEANYYSNATTDEHGLVQFSINTTNVMGTSLTVRVNYKDRSPCYGYQWVSEEHEEAHHTAYLVFSPSKSFVHLEPMSHELPCGHTQTVQAHYILNGGTLLGLKKLSFYYLIMAKGGIVRTGTHGLLVKQEDMKGHFSISIPVKSDIAPVARLLIYAVLPTGDVIGDSAKYDVENCLANKVDLSFSPSQSLPASHAHLRVTAAPQSVCALRAVDQSVLLMKPDAELSASSVYNLLPEKDLTGFPGPLNDQDDEDCINRHNVYINGITYTPVSSTNEKDMYSFLEDMGLKAFTNSKIRKPKMCPQLEQYEMHGPEGLRVGEGEGEGEGFYESDVMGRGHARLVHVEEPHTKLLRKYFPETWIWDLVVVNSAGVAEVGVTVPDTITEWKAGAFCLSEDAGLGISSTASLRAFQPFFVELTMPYSVIRGEAFTLKATVLNYLPKCIRVSVQLEASPAFLAVPVEKEQAPHCICANGRQTVSWAVTPKSLGNVNFTVSAEALESQELCGTEVPSVPEHGRKDTVIKPLLVEPEGLEKETTFNSLLCPSGGEVSEELSLKLPPNVVEESARASVSVLGDILGSAMQNTQNLLQMPYGCGEQNMVLFAPNIYVLDYLNETQQLTPEIKSKAIGYLNTGYQRQLNYKHYDGSYSTFGERYGRNQGNTWLTAFVLKTFAQARAYIFIDEAHITQALIWLSQRQKDNGCFRSSGSLLNNAIKGGVEDEVTLSAYITIALLEIPLTVTHPVVRNALFCLESAWKTAQEGDHGSHVYTKALLAYAFALAGNQDKRKEVLKSLNEEAVKKDNSVHWERPQKPKAPVGHFYEPQAPSAEVEMTSYVLLAYLTAQPAPTSEDLTSATNIVKWITKQQNAQGGFSSTQDTVVALHALSKYGAATFTRTGKAAQVTIQSSGTFSSKFQVDNNNRLLLQQVSLPELPGEYSMKVTGEGCVYLQTSLKYNILPEKEEFPFALGVQTLPQTCDEPKAHTSFQISLSVSYTGSRSASNMAIVDVKMVSGFIPLKPTVKMLERSNHVSRTEVSSNHVLIYLDKVSNQTLSLFFTVLQDVPVRDLKPAIVKVYDYYETDEFAIAEYNAPCSKDLGNADYKDDDDKGASHHHHHH
B2: Variant A2M, bait region SEQ ID NO 125 (other)
chain: SVSGKPQYMVLVPSLLHTETTEKGCVLLSYLNETVTVSASLESVRGNRSLFTDLEAENDVLHCVAFAVPKSSSNEEVMFLTVQVKGPTQEFKKRTTVMVKNEDSLVFVQTDKSIYKPGQTVKFRVVSMDENFHPLNELIPLVYIQDPKGNRIAQWQSFQLEGGLKQFSFPLSSEPFQGSYKVVVQKKSGGRTEHPFTVEEFVLPKFEVQVTVPKIITILEEEMNVSVCGLYTYGKPVPGHVTVSICRKYSDASDCHGEDSQAFCEKFSGQLNSHGCFYQQVKTKVFQLKRKEYEMKLHTEAQIQEEGTVVELTGRQSSEITRTITKLSFVKVDSHFRQGIPFFGQVRLVDGKGVPIPNKVIFIRGNEANYYSNATTDEHGLVQFSINTTNVMGTSLTVRVNYKDRSPCYGYQWVSEEHEEAHHTAYLVFSPSKSFVHLEPMSHELPCGHTQTVQAHYILNGGTLLGLKKLSFYYLIMAKGGIVRTGTHGLLVKQEDMKGHFSISIPVKSDIAPVARLLIYAVLPTGDVIGDSAKYDVENCLANKVDLSFSPSQSLPASHAHLRVTAAPQSVCALRAVDQSVLLMKPDAELSASSVYNLLPEKDLTGFPGPLNDQDDEDCINRHNVYINGITYTPVSSTNEKDMYSFLEDMGLKAFTNSKIRKPKMCPQLEQYEMHGPSELEGRGSIPENFFGVEAIPMSIPTSEDLVVQIVEEPHTKLRKYFPETWIWDLVVVNSAGVAEVGVTVPDTITEWKAGAFCLSEDAGLGISSTASLRAFQPFFVELTMPYSVIRGEAFTLKATVLNYLPKCIRVSVQLEASPAFLAVPVEKEQAPHCICANGRQTVSWAVTPKSLGNVNFTVSAEALESQELCGTEVPSVPEHGRKDTVIKPLLVEPEGLEKETTFNSLLCPSGGEVSEELSLKLPPNVVEESARASVSVLGDILGSAMQNTQNLLQMPYGCGEQNMVLFAPNIYVLDYLNETQQLTPEIKSKAIGYLNTGYQRQLNYKHYDGSYSTFGERYGRNQGNTWLTAFVLKTFAQARAYIFIDEAHITQALIWLSQRQKDNGCFRSSGSLLNNAIKGGVEDEVTLSAYITIALLEIPLTVTHPVVRNALFCLESAWKTAQEGDHGSHVYTKALLAYAFALAGNQDKRKEVLKSLNEEAVKKDNSVHWERPQKPKAPVGHFYEPQAPSAEVEMTSYVLLAYLTAQPAPTSEDLTSATNIVKWITKQQNAQGGFSSTQDTVVALHALSKYGAATFTRTGKAAQVTIQSSGTFSSKFQVDNNNRLLLQQVSLPELPGEYSMKVTGEGCVYLQTSLKYNILPEKEEFPFALGVQTLPQTCDEPKAHTSFQISLSVSYTGSRSASNMAIVDVKMVSGFIPLKPTVKMLERSNHVSRTEVSSNHVLIYLDKVSNQTLSLFFTVLQDVPVRDLKPAIVKVYDYYETDEFAIAEYNAPCSKDLGNADYKDDDDKGASHHHHHH

Experiments:
Experiment in all cases: cell-based or functional assay
bovine trypsin = bovine trypsin (bovine, UniProt P00760 24-246)
Elastase = target: Elastase
MMP9 = MMP9 (human, UniProt P14780 107-707, limits assumed)
MMP13 = MMP13 (human, UniProt P45452 104-471, limits assumed)
ADAMTS5 = target: T1, ADAMTS5 (human, UniProt Q9UNA0 262-622, limits assumed)
T1 sequence (looked up): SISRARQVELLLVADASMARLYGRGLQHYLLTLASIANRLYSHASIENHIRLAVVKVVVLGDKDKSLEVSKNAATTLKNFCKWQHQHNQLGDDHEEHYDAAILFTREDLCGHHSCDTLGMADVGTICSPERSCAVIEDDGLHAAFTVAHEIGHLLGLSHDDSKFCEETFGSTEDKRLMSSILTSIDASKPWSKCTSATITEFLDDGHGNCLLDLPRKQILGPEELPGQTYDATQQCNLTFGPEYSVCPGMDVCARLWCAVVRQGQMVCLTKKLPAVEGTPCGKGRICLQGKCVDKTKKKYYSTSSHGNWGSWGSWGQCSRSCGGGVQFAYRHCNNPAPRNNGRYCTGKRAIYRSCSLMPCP

MMP1 = target: T2, MMP1 (human, UniProt P03956 100-469, limits assumed)
T2 sequence (looked up): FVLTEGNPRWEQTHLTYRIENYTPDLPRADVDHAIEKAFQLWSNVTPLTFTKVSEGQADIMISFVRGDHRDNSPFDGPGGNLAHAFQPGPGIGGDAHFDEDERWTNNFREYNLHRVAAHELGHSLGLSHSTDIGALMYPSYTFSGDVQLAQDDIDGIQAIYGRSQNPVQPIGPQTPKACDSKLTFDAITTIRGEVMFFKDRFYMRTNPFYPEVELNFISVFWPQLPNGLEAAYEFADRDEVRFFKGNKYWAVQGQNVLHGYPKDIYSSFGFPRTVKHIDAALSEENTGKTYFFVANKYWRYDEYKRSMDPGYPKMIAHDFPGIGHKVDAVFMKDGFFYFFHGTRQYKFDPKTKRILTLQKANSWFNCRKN

MMP12 = MMP12 (human, UniProt P39900 106-470, limits assumed)
ADAMTS4 = target: T3, ADAMTS4 (human, UniProt O75173 213-685, limits assumed)
T3 sequence (looked up): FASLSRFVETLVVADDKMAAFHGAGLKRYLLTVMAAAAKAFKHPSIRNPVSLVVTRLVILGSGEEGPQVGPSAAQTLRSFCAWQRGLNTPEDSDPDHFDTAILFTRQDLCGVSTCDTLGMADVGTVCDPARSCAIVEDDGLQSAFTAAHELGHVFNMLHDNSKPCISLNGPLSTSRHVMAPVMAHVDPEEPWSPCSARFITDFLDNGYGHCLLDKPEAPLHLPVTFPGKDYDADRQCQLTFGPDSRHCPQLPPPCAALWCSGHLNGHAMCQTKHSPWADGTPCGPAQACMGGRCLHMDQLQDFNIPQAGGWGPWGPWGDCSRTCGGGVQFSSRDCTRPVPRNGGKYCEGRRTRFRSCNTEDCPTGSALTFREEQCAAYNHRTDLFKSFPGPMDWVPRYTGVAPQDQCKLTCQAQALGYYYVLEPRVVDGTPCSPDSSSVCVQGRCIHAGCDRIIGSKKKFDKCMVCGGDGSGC

MMP2 = target: T4, MMP2 (human, UniProt P08253 110-660, limits assumed)
T4 sequence (looked up): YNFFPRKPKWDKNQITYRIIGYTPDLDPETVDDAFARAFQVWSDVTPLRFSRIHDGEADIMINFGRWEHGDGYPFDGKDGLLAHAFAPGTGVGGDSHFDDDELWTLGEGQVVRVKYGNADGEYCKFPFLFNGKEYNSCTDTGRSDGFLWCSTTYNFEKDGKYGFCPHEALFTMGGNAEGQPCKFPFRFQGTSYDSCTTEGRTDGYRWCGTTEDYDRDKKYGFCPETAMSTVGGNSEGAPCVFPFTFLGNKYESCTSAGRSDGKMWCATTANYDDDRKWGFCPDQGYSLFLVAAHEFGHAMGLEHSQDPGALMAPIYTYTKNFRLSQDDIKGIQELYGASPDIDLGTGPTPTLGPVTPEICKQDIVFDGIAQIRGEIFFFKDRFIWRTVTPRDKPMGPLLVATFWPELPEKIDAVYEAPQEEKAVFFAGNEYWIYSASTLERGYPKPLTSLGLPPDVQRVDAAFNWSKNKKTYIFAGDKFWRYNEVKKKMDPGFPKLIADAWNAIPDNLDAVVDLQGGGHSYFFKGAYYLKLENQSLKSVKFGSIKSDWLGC

MMP8 = MMP8 (human, UniProt P22894 101-467, limits assumed)
MMP3 = MMP3 (human, UniProt P08254 100-477, limits assumed)
Cathepsin G = target: T5, Cathepsin G (UniProt P08311 21-244)
T5 sequence (looked up): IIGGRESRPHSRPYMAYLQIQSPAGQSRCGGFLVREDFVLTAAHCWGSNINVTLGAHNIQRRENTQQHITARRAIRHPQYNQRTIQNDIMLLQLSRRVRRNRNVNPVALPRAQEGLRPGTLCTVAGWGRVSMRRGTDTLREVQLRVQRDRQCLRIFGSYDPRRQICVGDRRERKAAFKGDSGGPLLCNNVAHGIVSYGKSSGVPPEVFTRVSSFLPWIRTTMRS

MMP12, sequence (P39900 106-470 limits assumed): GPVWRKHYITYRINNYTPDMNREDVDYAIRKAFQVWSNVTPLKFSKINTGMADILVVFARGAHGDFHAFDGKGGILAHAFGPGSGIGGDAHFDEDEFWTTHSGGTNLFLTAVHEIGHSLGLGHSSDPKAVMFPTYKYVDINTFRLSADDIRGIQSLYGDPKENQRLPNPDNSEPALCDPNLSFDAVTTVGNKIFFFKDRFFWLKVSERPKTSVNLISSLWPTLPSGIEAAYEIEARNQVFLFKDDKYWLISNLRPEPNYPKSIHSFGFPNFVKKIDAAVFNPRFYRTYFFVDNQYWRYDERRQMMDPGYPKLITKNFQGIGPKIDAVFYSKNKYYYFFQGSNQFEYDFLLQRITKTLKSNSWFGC
MMP8, sequence (P22894 101-467 limits assumed): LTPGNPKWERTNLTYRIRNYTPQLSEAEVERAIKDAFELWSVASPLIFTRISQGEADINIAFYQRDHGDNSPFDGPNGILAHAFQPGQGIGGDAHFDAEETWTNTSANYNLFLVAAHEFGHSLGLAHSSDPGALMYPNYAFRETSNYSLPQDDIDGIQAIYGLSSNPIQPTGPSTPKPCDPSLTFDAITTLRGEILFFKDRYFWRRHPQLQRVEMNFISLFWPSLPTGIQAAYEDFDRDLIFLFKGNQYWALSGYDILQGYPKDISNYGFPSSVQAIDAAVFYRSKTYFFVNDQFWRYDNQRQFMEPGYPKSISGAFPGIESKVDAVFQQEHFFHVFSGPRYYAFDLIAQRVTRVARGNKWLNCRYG
MMP9, sequence (P14780 107-707 limits assumed): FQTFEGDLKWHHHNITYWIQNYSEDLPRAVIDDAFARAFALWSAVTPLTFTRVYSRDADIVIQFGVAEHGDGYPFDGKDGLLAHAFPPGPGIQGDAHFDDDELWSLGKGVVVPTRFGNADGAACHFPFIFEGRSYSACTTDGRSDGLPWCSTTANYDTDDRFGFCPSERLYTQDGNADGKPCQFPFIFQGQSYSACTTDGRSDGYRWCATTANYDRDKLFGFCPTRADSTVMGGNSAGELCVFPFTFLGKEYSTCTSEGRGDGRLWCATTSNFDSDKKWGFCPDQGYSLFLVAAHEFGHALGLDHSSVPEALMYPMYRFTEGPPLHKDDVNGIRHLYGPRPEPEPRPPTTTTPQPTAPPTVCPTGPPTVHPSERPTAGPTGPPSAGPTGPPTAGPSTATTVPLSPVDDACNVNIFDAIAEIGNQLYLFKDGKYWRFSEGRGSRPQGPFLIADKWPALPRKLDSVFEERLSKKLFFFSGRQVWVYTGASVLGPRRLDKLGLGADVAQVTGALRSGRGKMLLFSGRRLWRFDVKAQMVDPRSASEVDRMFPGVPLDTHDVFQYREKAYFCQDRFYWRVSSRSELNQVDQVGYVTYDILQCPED
MMP3, sequence (P08254 100-477 limits assumed): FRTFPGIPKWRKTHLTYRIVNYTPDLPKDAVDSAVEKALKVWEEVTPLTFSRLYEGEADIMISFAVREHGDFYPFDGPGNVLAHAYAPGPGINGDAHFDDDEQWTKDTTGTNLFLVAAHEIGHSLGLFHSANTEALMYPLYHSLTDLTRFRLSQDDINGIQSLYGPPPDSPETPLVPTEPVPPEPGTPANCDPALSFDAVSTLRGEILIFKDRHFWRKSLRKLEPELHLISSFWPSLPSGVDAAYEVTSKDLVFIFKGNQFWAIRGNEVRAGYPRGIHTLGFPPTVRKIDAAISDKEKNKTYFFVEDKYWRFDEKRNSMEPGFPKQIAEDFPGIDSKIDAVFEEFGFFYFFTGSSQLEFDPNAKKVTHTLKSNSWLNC
bovine trypsin, sequence (P00760 24-246): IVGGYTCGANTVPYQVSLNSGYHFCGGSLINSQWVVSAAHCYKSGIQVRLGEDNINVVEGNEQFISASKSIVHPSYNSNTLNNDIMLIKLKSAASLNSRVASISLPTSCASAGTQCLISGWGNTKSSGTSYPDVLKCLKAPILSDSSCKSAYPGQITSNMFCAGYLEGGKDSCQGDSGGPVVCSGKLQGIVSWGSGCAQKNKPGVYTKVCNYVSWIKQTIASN

Binder | Protease Inhibition (% of WT) (bovine trypsin) | Protease Inhibition (% of WT) (Elastase) | Protease Inhibition (% of WT) (MMP9) | Protease Inhibition (% of WT) (MMP13) | Protease Inhibition (% of WT) (ADAMTS5) | Protease Inhibition (% of WT) (MMP1) | Protease Inhibition (% of WT) (MMP12) | Protease Inhibition (% of WT) (ADAMTS4) | Protease Inhibition (% of WT) (MMP2) | Protease Inhibition (% of WT) (MMP8) | Protease Inhibition (% of WT) (MMP3) | Protease Inhibition (% of WT) (Cathepsin G)
B1 | 100 % of WT | 50 % of WT | 70 % of WT | 200 % of WT | 350 % of WT | 100 % of WT | 100 % of WT | 250 % of WT | 100 % of WT | 50 % of WT | 80 % of WT | 
B2 |  | 75 % of WT | 300 % of WT |  |  | 200 % of WT | 300 % of WT |  | 20 % of WT | 300 % of WT |  | 250 % of WT
